Where a chain is given by its changes, count along the chain named. Numbers in names are those of the source.
T1: human lymphotoxin (human, UniProt P01374 35-205, limits assumed)
T1 sequence (looked up): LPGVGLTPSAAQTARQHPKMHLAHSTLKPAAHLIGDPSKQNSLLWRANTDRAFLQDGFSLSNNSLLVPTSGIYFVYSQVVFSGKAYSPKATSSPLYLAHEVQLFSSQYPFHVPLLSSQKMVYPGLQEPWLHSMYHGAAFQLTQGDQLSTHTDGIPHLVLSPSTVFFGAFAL

B1: GenTNV148.26.12 (antibody, human IgG1, kappa, V domains shown)
VH: QVQLVESGGGVVQPGRSLRLSCAASGFIFSSYAMHWVRQAPGNGLEWVAFMSYDGSNKKYADSVKGRFTISRDNPKNTLYLQMNSLRAEDTAVYYCARDRGIAAGGNYYYYGMDVWGQGTTVTVSS
VL: EIVLTQSPATLSLSPGERATLSCRASQSVYSYLAWYQQKPGQAPRLLIYDASNRATGIPARFSGSGSGTDFTLTISSLEPEDFAVYYCQQRSNWPPFTFGPGTKVDIKR
notes: Totally human IgG1 kappa from hybridoma, tested as hybridoma supernatant; also called C420A
B2: GenTNV86.14.34 (antibody, human IgG1, kappa, V domains shown)
VH: B1 VH
VL: B1 VL
notes: Totally human IgG1 kappa from hybridoma, tested as hybridoma supernatant; Only the variable regions were compared; also called C417A
B3: golimumab (antibody, human IgG1, kappa, V domains shown)
VH: B1 VH with P75S
VL: B1 VL
notes: Fully human IgG1 (G1m[z] allotype), kappa; also called SIMPONI

Tests used:
recombinant human TNFα [1] = molecular target: T2, recombinant human TNFα (human, UniProt P01375 77-233, 125I label in the receptor-blocking assay only); assay: inhibition of 125I-TNFα binding to plate-coated p55-sf2, hybridoma supernatants
T2 construct: also called huTNFα; tumor necrosis factor alpha
Method: (§1) Assay for Inhibition of TNF Binding to Receptor. […] Serial dilutions of the eight TNV cell supernatants were prepared in 96-well round-bottom plates using PBS/0.1% BSA as diluent. […] The mixture was preincubated for one hour at RT. […] After 2 hrs at RT, Optiplates were washed three times with PBS-Tween. […] of Microscint-20 was added and the cpm bound determined using the TopCount gamma counter.
A simple binding assay was done to determine whether the eight TNV mAbs contained in hybridoma cell supernatant were capable of blocking TNFα binding to receptor. The concentrations of the TNV mAbs in their respective cell supernatants were first determined by standard ELISA analysis for human IgG.

recombinant human TNFα [2] = molecular target: T2, recombinant human TNFα; assay: cell-based or functional assay
recombinant human TNFα [3] = molecular target: T2, recombinant human TNFα; assay: competition: 125I-TNFα (5 ng/ml) preincubated with hybridoma supernatant, then bound to plate-coated p55-sf2, gamma counting; blocked partner p55-sf2
Method: Varying amounts of hybridoma cell supernatants containing known amounts of TNV mAb were preincubated with a fixed concentration (5 ng/ml) of ¹²⁵I-labeled TNFα. […] Although eight TNV mAb samples were tested in these experiments, for simplicity three of the mAbs that were shown by DNA sequence analyses to be identical to one of the other TNV mAbs (see Section 5.2.2) are not shown here. Each sample was tested in duplicate. The results shown are representative of two independent experiments.
as §1
A simple binding assay was done to determine whether the eight TNV mAbs contained in hybridoma cell supernatant were capable of blocking TNFα binding to receptor.

human lymphotoxin = molecular target: T1, human lymphotoxin; assay: not described

| Binder | fold better at blocking TNF binding than TNV118 and TNV14 (recombinant human TNFα [1]) | neutralizing TNFα bioactivity (recombinant human TNFα [2]) | IC50 (read off the curve) (recombinant human TNFα [3]) | binding result (human lymphotoxin) |
| --- | --- | --- | --- | --- |
| B1 | ~4 fold | 4 fold | ~4 ng/mL | – |
| B2 | ~4 fold | – | – | – |
| B3 | – | – | – | no binding |
